Numbering of substitutions follows the chain as printed.
Key:
human ROR1 (hROR1) [1] = biological target: T1, human ROR1 (hROR1) (human, UniProt Q01973 30-937); assay: flow cytometry, HCT116-hROR1 cells; NSB = non-saturating binding
T1 construct: On HCT116-hROR1 transfectants, Mino cells or Ntera-2 cells, as the assay of each row says; also called receptor tyrosine kinase like orphan receptor 1

human ROR1 (hROR1) [2] = biological target: T1, human ROR1 (hROR1); assay: cell-based or functional assay
[3] = biological target: ROR1 (recombinant protein coated on the ELISA plate, Example 11) (UniProt Q01973 30-403, limits assumed); assay: ELISA: ROR1 coated on the plate, antibody titrated 3-fold from 5 ug/mL, HRP anti-human Fc, chemiluminescence (ELISA RLU)
Excerpt: The anti-ROR1 lead antibodies were discovered from a Fab ribosome display library that contained CDR H1, H2, and H3 diversity and utilized a constant LC (trastuzumab LC). In this example, the HCs of the lead antibodies were co-expressed with trastuzumab LC or different LCs derived from anti-CD3 antibodies: hOKT3-LC1, hSP34-LC3, hUCHT1-LC3 to determine if the anti-ROR1 HC leads would retain binding to ROR1 when assembled with anti-CD3 LCs. […] The antibodies were then purified and tested for ROR1 binding by ELISA. The ELISA assay was carried out as follows. Briefly, 2 μg/mL of ROR1 was coated to a 384-well polystyrene plate for 1 hr at 30° C. in 0.1 M bicarbonate pH8.9 buffer before it was washed and blocked with 2% BSA in PBST (PBS, 0.1% Tween20) for 1 hr. Antibody variants were diluted to 5 μg/mL and further serially diluted 3-fold before 30 μL was applied to the ELISA plates for binding ([…] Antibody binding was detected via HRP-conjugated anti-human Fc antibodies (Jackson Immunoresearch) and detection with SuperSignal ELISA Pico Chemiluminescent Substrate (Pierce).

[4] = biological target: T2, human ROR1 extracellular domain (human, UniProt Q01973 30-406); assay: SPR (Biacore T200), IgG captured by anti-human Fc, ROR1 ECD as analyte, 1:1 Langmuir fit
T2 construct: Bought recombinant protein (Acro Biosystems); also called ROR1 ECD; hROR1
Experimental: (§1) The data was fit with the Biacore™ T200 Evaluation software, using a 1-1 Langmuir binding model. KD (affinity, nM) was determined as a ratio of the kinetic rate constants calculated from the fits of the association and dissociation phases.

[5] = biological target: T3, human ROR1 Immunoglobulin domain (Ig, residues 39-151) with C-terminal HIS6 tag (human, UniProt Q01973 39-151); assay: SPR kinetic screen (Biacore), antibody captured as ligand (Fc=2-1), sample printed as ROR1 Ig, 25 C, 1:1 binding model
T3 construct: Made in HEK293 cells and purified (Acro Biosystems)

[6] = biological target: T3, human ROR1 Immunoglobulin domain (Ig, …); assay: as above; remark: listed apart in the source
[7] = biological target: T4, human ROR1 Frizzled domain (Fz, residues 165-305) with C-terminal HIS6 tag (human, UniProt Q01973 165-305); assay: SPR (Biacore T200), IgG captured by anti-human Fc, ROR1 Fz as analyte, 1:1 Langmuir fit
T4 construct: Made in HEK293 cells and purified (Acro Biosystems); also called ROR1 Fz; hROR1-Fz
Experimental: as §1

[8] = biological target: T5, human ROR1 frizzled domain (hROR1-Fz) (human, UniProt Q01973 165-305); assay: SPR kinetic screen (Biacore), antibody captured as ligand (Fc=3-1), sample ROR1 Fz, 25 C, 1:1 binding model; fit to a low response of at most about 2 on the response axis; Table 7 lists this pair as 'Not detected'
T5 construct: From Acro Biosystems

[9] = biological target: T3, human ROR1 Immunoglobulin domain (Ig, …); assay: SPR kinetic screen (Biacore), antibody captured as ligand (Fc=4-1), sample printed as ROR1 Ig, 25 C, 1:1 binding model; fit to a flat sensorgram

B1: SRP2193-A01 (antibody, IgG1, V domains shown)
VH: EVQLVESGGGLVQPGGSLRLSCAASGFNINDHYIHWVRQAPGKGLEWVGAIDPTSGSTVFADSVKGRFTISADTSKNTAYLQMNSLRAEDTAVYYCARSRWFRVLWSYVFDYWGQGTLVTVSS
VL: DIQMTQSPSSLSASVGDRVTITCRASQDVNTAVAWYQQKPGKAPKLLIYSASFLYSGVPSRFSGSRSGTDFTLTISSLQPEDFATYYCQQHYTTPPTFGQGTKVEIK
notes: His/FLAG-tagged IgG1, cell-free
binding result (human ROR1 (hROR1) [1]): binds

B2: SRP2193-A02 (antibody, IgG1, V domains shown)
VH: B1 VH with N30H, D31A, H32S, T54K, V59Y, F60Y, F102L, V109I
VL: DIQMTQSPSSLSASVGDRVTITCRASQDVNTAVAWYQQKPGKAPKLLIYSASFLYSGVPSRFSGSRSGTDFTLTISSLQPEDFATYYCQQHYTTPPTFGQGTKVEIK
notes: His/FLAG-tagged IgG1, cell-free; also called Antibody 83
binding result (human ROR1 (hROR1) [1]): binds

B3: SRP2193-A03 (antibody, IgG1, V domains shown)
VH: B1 VH with N30A, D31N, H32Y, Y33H, T54K, F60H, F102S, S107T
VL: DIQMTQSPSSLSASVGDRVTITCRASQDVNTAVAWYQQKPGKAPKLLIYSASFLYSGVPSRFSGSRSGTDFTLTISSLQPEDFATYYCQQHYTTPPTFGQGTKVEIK
notes: as for B1
binding result (human ROR1 (hROR1) [1]): binds

B4: SRP2193-A04 (antibody, IgG1, V domains shown)
VH: B1 VH with N30I, D31S, H32Y, T54N, V59L, F60L, F110Y
VL: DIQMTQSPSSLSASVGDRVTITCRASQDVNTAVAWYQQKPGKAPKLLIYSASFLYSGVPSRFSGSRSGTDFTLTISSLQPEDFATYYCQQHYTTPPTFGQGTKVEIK
notes: as for B1
binding result (human ROR1 (hROR1) [1]): binds

B5: SRP2193-A05 (antibody, IgG1, V domains shown)
VH: B1 VH with N30K, D31G, H32Y, G49S, A50V, T54N, V59I, F110L
VL: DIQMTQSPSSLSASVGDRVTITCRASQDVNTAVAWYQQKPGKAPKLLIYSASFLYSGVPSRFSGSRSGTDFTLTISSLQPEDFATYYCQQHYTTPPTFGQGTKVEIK
notes: His/FLAG-tagged IgG1, cell-free; also called Antibody 116
binding result (human ROR1 (hROR1) [1]): binds

B6: SRP2193-A06 (antibody, IgG1, V domains shown)
VH: B1 VH with D31A, H32Y, G49D, T54D, V59H, F60N, V109I
VL: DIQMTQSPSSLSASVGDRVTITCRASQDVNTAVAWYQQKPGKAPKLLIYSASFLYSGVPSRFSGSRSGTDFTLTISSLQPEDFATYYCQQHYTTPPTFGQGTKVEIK
notes: His/FLAG-tagged IgG1, cell-free; also called Antibody 85
binding result (human ROR1 (hROR1) [1]): binds

B7: SRP2193-A07 (antibody, IgG1, V domains shown)
VH: B1 VH with D31A, H32S, Y33D, E46G, T54N, S55T, S57T, V59N, F60Y
VL: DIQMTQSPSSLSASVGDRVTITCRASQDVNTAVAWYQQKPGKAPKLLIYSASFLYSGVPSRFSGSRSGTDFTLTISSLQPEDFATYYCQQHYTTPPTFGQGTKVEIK
notes: His/FLAG-tagged IgG1, cell-free; also called Antibody 97
binding result (human ROR1 (hROR1) [1]): binds

B8: SRP2193-A08 (antibody, IgG1, V domains shown)
VH: B1 VH with N30I, H32S, T54N, S55A, F60Y, K65R, L81I
VL: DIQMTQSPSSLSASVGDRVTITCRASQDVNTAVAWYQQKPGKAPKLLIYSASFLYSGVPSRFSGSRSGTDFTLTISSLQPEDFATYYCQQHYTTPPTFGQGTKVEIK
notes: His/FLAG-tagged IgG1, cell-free; also called Antibody 112
binding result (human ROR1 (hROR1) [1]): binds

B9: SRP2193-A09 (antibody, IgG1, V domains shown)
VH: B1 VH with N30G, D31K, Y33H, A50V, T54K, S55G, F60Y, F102S
VL: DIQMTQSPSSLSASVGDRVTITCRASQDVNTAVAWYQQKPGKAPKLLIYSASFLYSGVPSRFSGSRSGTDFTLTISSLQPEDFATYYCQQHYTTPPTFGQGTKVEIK
notes: His/FLAG-tagged IgG1, cell-free; also called Antibody 94
binding result (human ROR1 (hROR1) [1]): binds

B10: SRP2193-A10 (antibody, IgG1, V domains shown)
VH: B1 VH with N30G, H32Y, T54K, S57Y, F60Y
VL: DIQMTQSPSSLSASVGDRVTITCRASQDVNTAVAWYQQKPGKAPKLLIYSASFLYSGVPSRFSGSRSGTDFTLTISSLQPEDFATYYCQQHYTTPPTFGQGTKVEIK
notes: His/FLAG-tagged IgG1, cell-free; also called Antibody 95
binding result (human ROR1 (hROR1) [1]): binds

B11: SRP2193-A11 (antibody, IgG1, V domains shown)
VH: B1 VH with N30D, D31A, H32Y, T54K, F60Y, I70T
VL: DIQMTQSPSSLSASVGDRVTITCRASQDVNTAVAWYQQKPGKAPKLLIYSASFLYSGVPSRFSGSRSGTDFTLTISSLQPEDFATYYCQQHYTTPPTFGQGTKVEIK
notes: His/FLAG-tagged IgG1, cell-free; also called Antibody 110
binding result (human ROR1 (hROR1) [1]): binds

B12: Conjugate 7 (2188-D04-Y180/F404/K42/E161-LP10) (antibody, human IgG1, kappa)
heavy: MEVQLVESGGGLVQPGGSLRLSCAASGFNISDYDIHWVRQAPGKGLEWVGGIDPADGSTDYADSVKGRFTISADTSKNTAYLQMNSLRAEDTAVYYCARDYGVYDYWGQGTLVTVSSASTKGPSVFPLAPSSKSTSGGTAALGCLVKDYFPEPVTVSWNSGALTSGVHTFPAVLQSSGLSLSSVVTVPSSSLGTQTYICNVNHKPSNTKVDKKVEPKSCDKTHTCPPCPAPELLGGPSVFLFPPKPKDTLMISRTPEVTCVVVDVSHEDPEVKFNWYVDGVEVHNAKTKPREEQYNSTYRVVSVLTVLHQDWLNGKEYKCKVSNKALPAPIEKTISKAKGQPREPQVYTLPPSREEMTKNQVSLTCLVKGFYPSDIAVEWESNGQPENNYKTTPPVLDSDGSFLYSKLTVDKSRWQQGNVFSCSVMHEALHNHYTQKSLSLSPGK
light: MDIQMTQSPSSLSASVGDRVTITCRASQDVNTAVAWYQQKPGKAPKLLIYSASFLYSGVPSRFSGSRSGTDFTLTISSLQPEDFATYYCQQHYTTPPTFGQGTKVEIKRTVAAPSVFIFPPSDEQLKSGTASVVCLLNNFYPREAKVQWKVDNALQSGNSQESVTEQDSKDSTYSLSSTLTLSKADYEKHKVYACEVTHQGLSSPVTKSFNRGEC
modifications: pAMF in place of LC-K42 and LC-E161 (Kabat numbering), conjugated to LP10; pAMF at HC-Y180 and HC-F404 (the * of the entry), conjugated to LP10
cell killing on ROR1 positive NTERA-2 cells, EC50 (human ROR1 (hROR1) [2]): 0.048 nM
cell killing on ROR1 positive NTERA-2 cells, Span (human ROR1 (hROR1) [2]): 94%

B13: 1987-C05 HC with Trastuzumab LC (antibody, V domains shown)
VH: EVQLVESGGGLVQPGGSLRLSCAASGFNISDYDIHWVRQAPGKGLEWVGGIDPDDGSTDYADSVKGRFTISADTSKNTAYLQMNSLRAEDTAVYYCARDYGVFDYWGQGTLVTVSS
VL: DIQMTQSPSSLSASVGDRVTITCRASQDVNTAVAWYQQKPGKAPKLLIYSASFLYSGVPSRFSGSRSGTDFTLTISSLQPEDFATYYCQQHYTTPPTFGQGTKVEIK
notes: also called 1987-C05 HC w/trstmb LC (parent IgG); SRP1987-C05
EC50 (read off the curve) [3]: ~0.04 µg/mL
Kd [4]: 0.277 nM
koff [4]: 0.000673 s⁻¹
kon [4]: 2.43e+06 M⁻¹ s⁻¹
Kd [5]: 0.00859 nM
koff [5]: 0.000705 s⁻¹
kon [5]: 8.2e+07 M⁻¹ s⁻¹

B14: 1987-C05 HC co-expressed with hUCHT1-LC3 light chain (antibody, V domains shown)
VH: B13 VH
VL: DIQMTQSPSTLSASVGDRVTITCRASQDIRNYLNWYQQKPGKAPKLLIYYTSRLHSGVPSRFSGSGSGTEYTLTISSLQPDDFATYYCQQGNTLPWTFGGGTKVEIK
notes: Only variable domains are tied to this pairing; also called 1987-C05 w/hUCHT1 LC3; 1987-C05 variant
EC50 (read off the curve) [3]: ~0.03 µg/mL
Kd [6]: 2.6 nM
koff [6]: 0.133 s⁻¹
kon [6]: 5.11e+07 M⁻¹ s⁻¹

B15: 1944-A07 HC with Trastuzumab LC (antibody, IgG1, V domains shown)
VH: EVQLVESGGGLVQPGGSLRLSCAASGFNITGYYIHWVRQAPGKGLEWVGYISPNSGSTYYADSVKGRFTISADTSKNTAYLQMNSLRAEDTAVYYCARDSRRYVRPFDYWGQGTLVTVSS
VL: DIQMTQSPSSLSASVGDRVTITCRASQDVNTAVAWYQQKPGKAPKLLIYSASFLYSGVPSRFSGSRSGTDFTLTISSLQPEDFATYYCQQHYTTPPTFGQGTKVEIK
notes: Screening constructs are described as His- and FLAG-tagged IgG1; also called SRP1944-A07
EC50 (read off the curve) [3]: ~0.02 µg/mL
Kd [7]: 9.59 nM
koff [7]: 0.029 s⁻¹
kon [7]: 3.02e+06 M⁻¹ s⁻¹

B16: 1944-A07 HC co-expressed with hOKT3-LC1 light chain (antibody, V domains shown)
VH: B15 VH
VL: DIQMTQSPSSLSASVGDRVTITCSASSSVSYMNWYQQKPGKAPKRLIYDTSKLASGVPSRFSGSGSGTEYTLTISSLQPEDFATYYCQQWSSNPFTFGQGTKLEIK
notes: Only variable domains are tied to this pairing
EC50 (read off the curve) [3]: ~0.05 µg/mL
Kd [8]: 17.9 nM
koff [8]: 0.0137 s⁻¹
kon [8]: 763000 M⁻¹ s⁻¹

B17: 1987-C05 HC co-expressed with hSP34-LC3 light chain (antibody, V domains shown)
VH: B13 VH
VL: QTVVTQEPSLTVSPGGTVTLTCGSSTGAVTSGYYPNWFQQKPGQAPRGLIGGTKFLAPGTPARFSGSLLGGKAALTLSGVQPEDEAEYYCALWYSNRWVFGGGTQLTVTG
notes: Only variable domains are tied to this pairing; also called 1987-C05 w/hSP34 LC3; 1987-C05 variant
Kd [9]: 34.1 nM
koff [9]: 0.00133 s⁻¹
kon [9]: 38900 M⁻¹ s⁻¹

B18: 1944-A07 HC co-expressed with hUCHT1-LC3 light chain (antibody, V domains shown)
VH: B15 VH
VL: B14 VL
notes: as for B16
EC50 (read off the curve) [3]: ~0.02 µg/mL

B19: 1944-A07 HC co-expressed with hSP34-LC3 light chain (antibody, IgG1, V domains shown)
VH: B15 VH
VL: B17 VL
notes: as for B16
EC50 (read off the curve) [3]: ~0.05 µg/mL

B20: 1944-A07 HC with hSP34-LC3 light chain (antibody, V domains shown)
VH: B15 VH
VL: B17 VL
notes: IgG with an anti-CD3 light chain
Kd [7]: 6.35 nM
koff [7]: 0.00228 s⁻¹
kon [7]: 360000 M⁻¹ s⁻¹

B21: 1944-A07 HC with hUCHT1-LC3 light chain (antibody, V domains shown)
VH: B15 VH
VL: B14 VL
notes: as for B20
Kd [7]: 64.1 nM
koff [7]: 0.119 s⁻¹
kon [7]: 1.85e+06 M⁻¹ s⁻¹

B22: 1987-C05 HC with hUCHT1-LC3 light chain (antibody, V domains shown)
VH: B13 VH
VL: B14 VL
notes: IgG with an anti-CD3 light chain; also called 1987-C05 HC w/hUCHT1 LC3
Kd [4]: 1.14 nM
koff [4]: 0.000645 s⁻¹
kon [4]: 566000 M⁻¹ s⁻¹

— patent US20240058465A1 (SUTRO BIOPHARMA, published 2024)
